From patent publication EP4752156A1 (Shanghai Yunxuan Biotechnologies, Inc., dated 2026)

Target: GST-ZZS05 fusion protein (UniProt P08515 1-218 = GST)
Test: Biacore SPR as in Example 3.3

Chain of GST-ZZS05 fusion protein (P08515 1-218, tags or fused parts left off): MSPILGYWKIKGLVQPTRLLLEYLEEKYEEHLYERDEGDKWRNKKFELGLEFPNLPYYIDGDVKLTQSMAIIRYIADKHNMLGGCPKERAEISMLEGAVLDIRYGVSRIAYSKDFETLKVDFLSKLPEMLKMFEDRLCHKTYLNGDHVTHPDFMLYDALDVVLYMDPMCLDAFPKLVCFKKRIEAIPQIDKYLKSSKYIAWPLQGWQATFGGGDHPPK

B1: h29 (antibody, V domains shown)
VH: QVQLVESGGGVVQPGRSLTLSCAASGFTFSRYGMHWVRQAPGKGLEWVTVITYDGRKKYYADSVKGRFTISRDNSQNTLSLQMNSLRAEDTAVYYCAKDLLIGYGMDVWGQGTTVTVSS
VL: DIVMTQSPDSLAVSLGERATIKCKSSQSVFFSSSNKNFLTWYQQKPGQPPKLLIYWASTRESGVPDRFSGSGSGTDFTLTINNLQAEDVTVYYCQQCFSTPYSFGQGTKLEIKR
Kd: 1.2 nM
